Assays:
[1] = target: T1, Tau(pS404) peptide (human); assay: direct ELISA, TauS404 coated at 1 ug/mL, antibody titrated
T1 sequence (peptide, only S404 phosphorylated (pS404)): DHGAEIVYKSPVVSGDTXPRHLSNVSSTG

[2] = target: T1, Tau(pS404) peptide (human); assay: competition ELISA, TauS404 coated at 1 ug/mL, VY014 titrated; peptide 12 at 1 µg/mL as competitor in solution
[3] = target: T1, Tau(pS404) peptide (human); assay: competition ELISA, TauS404 coated at 1 ug/mL, VY014 titrated; AC04 peptide at 1 µg/mL as competitor in solution

B1: VY014 (antibody, V domains shown)
VH: EVQLVESGGGLVQPGGSLRLSCAASGFTFNNYDMHWVRQAAGKGLEWVSTIGAAGDTYYPGSVKGRFIISRENAKNSLYLQMNSLRAGDTAVYYCARAGETLEGATIGYYYGMDVWGQGTTVTVSS
VL: DILMTQSPLSLPVTPGEPASISCRSSQSLLHSNGYNYLDWYLQKPGQSPQLLIYLGSNRASGVPDRFSGSGSGTDFTLKFSRVEAEDVGLYYCMQALQIPLTFGGGTKVEIK
- EC50 (read off the curve) [1]: 0.06 nM
- EC50 (read off the curve) [2]: 0.2 nM
- EC50 (read off the curve) [3]: 0.08 nM

From patent publication US20240059766A1
